The target in assay [1] is T1, TssJ N-terminal thioredoxine fusion (enteroaggregative Escherichia coli …).
T1 construct: TssJ of enteroaggregative Escherichia coli strain 17-2; residues 2-155 of the processed lipoprotein = residues 25-178 of the full-length protein; pETG-20A construct: hexahistidine tagged thioredoxin, TEV site, TssJ; used uncleaved on the CM5 chip; also called Trx-TssJ; source: E. coli T7 Iq pLysS, purified; not shown: thioredoxin, N-terminal, kept; His6, N-terminal, kept
Description: SPR; Biacore X100; Trx-TssJ covalently coupled to a CM5 chip (600 RU), TssM construct injected (Trx-TssM-ekto at 10-0.312 µM); 10 mM Tris pH 8, 150 mM NaCl, 0.005% Tween; Kd from equilibrium levels, 1:1 model. Particulars: both partners purified.

Assay [2] addresses T2, TssJ (enteroaggregative E. coli Sci1 T6SS), residues 2-155 of the processed lipoprotein, fusion and tag … (enteroaggregative Escherichia coli …).
T2 construct: TssJ outer membrane lipoprotein of the sci1 cluster, enteroaggregative Escherichia coli strain 17-2; residues 2-155 of the processed lipoprotein = residues 25-178 of the full-length protein; a Gly left at position 1 may stem from the TEV site (surmised); also called native TssJ; SciN; not shown: thioredoxin, N-terminal, cleaved; His6, N-terminal, cleaved
Description: SPR; Biacore X100; Trx-TssM-ekto covalently coupled to a CM5 chip (3000 RU), TssJ injected (40-0.312 µM); 10 mM Tris pH 8, 150 mM NaCl, 0.005% Tween; Kd from equilibrium levels, 1:1 model. Particulars: both partners purified.

B1: TssM-ekto N-terminal thioredoxine fusion (domain or fragment)
chain: DYGSLTAAGLGQEWYGFGQTVFVRPMEQAWQQVLTPAAESLNARWRTAVVDGWNNAFSGRYPFKNVSSDASLPLLAKYLNTDTGRIARFLQNNLSGVLHREGSRWVPDTINTRGLTFNPAFLKAINTLSEIADVAFTTGNAGLHFELRPGTAAGVMQTTLITDNQKLIYVNQMPVWKRFTWPADTEAPGASLSWVSTQAGTRQYADLPGSWGLIRLLEMARRKAAPGVASGWSLSWQAQDGRMLNYTLRTEAGEGPLVLLKLRNFVLPETVFELSGTSAFTGNDEDAGDTVEETD
Take B1: the Kd in assay [1] was 2100 nM; in assay [2] it was 4 ± 0.5 µM.

The record behind these values is PMC3213119, “Towards a Structural Comprehension of Bacterial Type VI Secretion Systems: Characterization of the TssJ-TssM Complex of an Escherichia coli Pathovar” (PLoS Pathogens, 2011).
